Where “and” joins values, the source holds several entries; their conditions need not be identical. Equal values may be shown once. Entries after “also recorded” stand apart in the source; their conditions may differ.
Legend:
[1] = tested on: primer-template duplex with matched or mismatched 3′ terminus; experiment: Steady-state extension kinetics, gel-based assay; format: biochemical; settings: incorporated base is dCTP
Description: Kinetic parameters were determined using a gel-based assay essentially as described (16). Primers 15, 16, 17 (3′ base=G, C, A respectively) were ^32P-labeled and annealed to one of template strands 18, 19, 20 (template base=C, G, A respectively) or 21 (template base C different context). Duplex substrates were used at 50 nM final concentration in 1× Taq buffer with various concentrations of enzyme and dNTP. Reactions were carried out at 60° C. for times whereby <20% of primer-template was utilized at the highest concentration of dNTP.
Extension and incorporation kinetics of M1 and M4 for a selection of mismatches were measured using a gel-based steady-state kinetic assay (Goodman) (Tables 1 & 2). M1 and M4 respectively extend a C•C mispair 390 and 75-fold more efficiently than wtTaq. […] The gain in extension efficiency derives predominantly from increased relative Vmax values for the mutant polymerases, while Km for nucleotide substrates remains largely unchanged. For most DNA polymerases the relative efficiency of extending a given mispair (f0ext) is similar to the relative efficiency of forming it (finc) (Goodman 1993, Goodman 1990, Washington 2001). Indeed, M1 and M4 respectively incorporate dCTP opposite template base C 206- and 29-fold more efficiently than wtTaq (Table 2).

[2] = tested on: primers with 3′ transversion mismatches; experiment: Mismatch extension PCR assay; format: biochemical; settings: G•A, C•C, G•G mismatched primers
Description: (§1) A PCR assay was used to screen and rank clones. Briefly, clones were normalized for activity in PCR with matched primers 3, 4 and activity with mismatched primers 1 and 2 (1 μM each) determined at minimal cycle number (15-25 cycles). Extension capability for different mismatches was determined by the same assay using mismatch primers 2 (C•C mismatch), 5 (A•A mismatch), 6 (G•G mismatch), 7 (G•A mismatch) with matched primer 3 or primer 1 (A•G mismatch) with matched primer 4. Incorporation of unnatural substrates in 50 cycle PCR was carried out using standard conditions and 50 μM […] dNTPs (Promega) or 50 μM FITC-12-dATP (Perkin-Elmer), Rhodamine-5-dUTP (Perkin-Elmer) or Biotin-16-dUTP (Roche) with equivalent amounts of the other 3 dNTPs (all 50 μM). Long PCR was carried out using a two-step cycling protocol as described (22) 94° C. for 2 minutes, followed by 20 cycles of (94° C. 15 sec, 68° C. 30 min) using 5 ng of phage λ DNA (New England Biolabs) template and either primers 9, 10, 11 with primer 12 or primer 13 with primers 10, 14.

[3] = tested on: undamaged template; experiment: Translesion replication assay, control; format: biochemical; settings: gel-extension assay, 60° C.
Description: (§2) Template primers 22 (undamaged) or 23 (containing a synthetic abasic site) were synthesized by Lofstrand Laboratories (Gaithersburg, Md.). Template primer 24 (containing a single cis-syn thymine dimer), was synthesized as described (34). Primer 25 was ^32P-labeled and annealed to one of the three templates 22, 23, 24 (at a primer template ratio of molar 1:1.5) and extended in 40 mM Tris.HCl at pH 8.0, 5 mM MgCl2, 100 μM of each dNTP, 10 mM DTT, 250 μg/ml BSA, 2.5% glycerol, 10 nM primer-template DNA and 0.1 Unit of polymerase at 60° C. for various times.

[4] = tested on: template containing an abasic site; experiment: Translesion replication assay (primer extension), abasic site; format: biochemical; settings: gel-extension assay, 60° C.
Description: as §2
Primer extension assays were essentially as described in (Ghadessy et al., 2004). Briefly, undamaged oligonucleotides and a 51mer containing a synthetic abasic site were synthesized by Lofstrand Laboratories (Gaithersburg, Md.) using standard techniques and were gel purified prior to use. A 20mer primer (LES—20 P) with the sequence 5′-[…]-3′ (SEQ ID NO: 99) was 5′-labeled with [^32P]ATP (5000 Ci/mmole; 1 Ci=37 GBq) (Pharmacia) using T4 polynucleotide kinase (Invitrogen, Carlsbad Calif.). Radiolabeled primer-template DNAs were prepared by annealing the 5′[^32P] labeled 20mer primer to one of the two following 51mer templates (at a primer template ratio of molar 1:1.5). 1) undamaged DNA (UNDT51T); 5′-AGCTACCATGCCTGCACGAATTCGGCATCCGTCGCGACCACGGTCGCAGCG-3′ (SEQ ID NO: 100); 2) an oligo (LABA51T) containing a synthetic abasic site (indicated as an X in bold font); 5′-AGCTACCATGCCTGCACGACA XCG GCATCCGTCGCGACCACGGTCGCAGCG-3′ (SEQ ID NO: 101). Standard replication reactions of 10 contained 40 mM Tris.HCl at pH 8.0, 5 mM MgCl2, 100 μM of each ultrapure dNTP (Amersham Pharmacia Biotech, NJ), 10 mM DTT, 250 μg/ml BSA, 2.5% glycerol, 10 nM 5′[32P] primer-template DNA and 0.1 Unit of polymerase. After incubation at 60° C. for various times reactions were terminated by the addition of 10 μl of 95% formamide/10 mM EDTA and the samples heated to 100° C. for 5 min. Reaction mixtures (5 μl) were subjected to 20% polyacrylamide/7 M Urea gel electrophoresis and replication products visualized by PhosphorImager analysis.

[5] = PCR with all four dNTPs replaced by αS dNTPs; format: biochemical; settings: 50 cycle PCR, 50 μM αS dNTPs
Description: as §1

[6] = PCR with dATP replaced by FITC-12-dATP; format: biochemical; settings: 50 cycle PCR, dATP completely replaced
Description: as §1

[7] = molecular target: matched and mismatched primer-template duplex; experiment: Template affinity equilibrium binding assay; settings: not shown
Description: An equilibrium binding assay (12) was used to determine relative affinity of polymerases for the mismatched primer-templates used in the kinetics assays. Polymerases were preincubated at 60° C. in 1× Taq buffer with 50 nM ^32P-labeled matched primer-template and 50 nM unlabeled mismatched competitor primer-templates. Reactions were initiated by simultaneous addition of dCTP (200 μM) and trap DNA (XbaI/SalI-restricted sheared salmon sperm DNA, 4.5 mg/ml).

[8] = 3′-terminal base pair A · A (template base: 3′ primer base)
[9] = 3′-terminal base pair A · G (template base: 3′ primer base)
[10] = 3′-terminal base pair C · C (template base: 3′ primer base)
[11] = 3′-terminal base pair C · G (template base: 3′ primer base), matched
[12] = 3′-terminal base pair G · A (template base: 3′ primer base)
[13] = 3′-terminal base pair G · G (template base: 3′ primer base)

Molecule | Vmax [1, 8] [% Min^−1] | Km ([1]; 3′-terminal base pair A · A) [µM] | Ratio of fext, fext (mutant polymerase)/fext (wtTaq) ([1]; 3′-terminal base pair A · A) | fext, f (mismatched 3′terminus)/f (matched terminus) ([1]; 3′-terminal base pair A · A) | Vmax [1, 9] [% Min^−1] | Km ([1]; 3′-terminal base pair A · G) [µM] | Ratio of fext, fext (mutant polymerase)/fext (wtTaq) ([1]; 3′-terminal base pair A · G) | fext, f (mismatched 3′terminus)/f (matched terminus) ([1]; 3′-terminal base pair A · G) | Vmax [1, 10] [% Min^−1] | Km ([1]; 3′-terminal base pair C · C) [µM] | Ratio of fext, fext (mutant polymerase)/fext (wtTaq) ([1]; 3′-terminal base pair C · C) | fext, f (mismatched 3′terminus)/f (matched terminus) ([1]; 3′-terminal base pair C · C) | Km [1, 11] [µM] | Vmax [1, 11] [% Min^−1] | Vmax [1, 12] [% Min^−1] | Km ([1]; 3′-terminal base pair G · A) [µM] | Ratio of fext, fext (mutant polymerase)/fext (wtTaq) ([1]; 3′-terminal base pair G · A) | fext, f (mismatched 3′terminus)/f (matched terminus) ([1]; 3′-terminal base pair G · A) | Vmax [1, 13] [% Min^−1] | Km ([1]; 3′-terminal base pair G · G) [µM] | also measured
wtTaq: Thermus aquaticus (Taq) wild type DNA polymerase [reference compound] | 1.7 | 27.3 | 1.0 | 6.7 × 10^−7 | 28.0 | 45.2 | 1.0 | 2.1 × 10^−7 | 0.2 | 39.9 | 1.0 | 5.9 × 10^−8 | 0.016 | 1477.0 | 1.6 | 32.8 | 1.0 | 5.4 × 10^−7 | 20.4 | 174 | Ratio of fext, fext (mutant polymerase)/fext (wtTaq) ([1]; 3′-terminal base pair G · G): 1.0; fext, f (mismatched 3′terminus)/f (matched terminus) ([1]; 3′-terminal base pair G · G): 1.3 × 10^−6; extension of 3′ transversion mismatches in PCR [2]: unable to extend; primer extension on undamaged template [3]: efficiently and rapidly extended primers to the end of the template; abasic site bypass in primer extension [4]: further extension is largely abolished; also recorded: further extension was negligible; PCR amplification with all four αS dNTPs [5]: failed to generate any amplification products; PCR amplification with FITC-12-dATP [6]: unable to generate any amplification products; dissociation constants for matched and mismatched primer-template duplex [7]: indistinguishable
M4: Taq mutant D58G, R74P, A109T, L245R, R343G, G370D, E520G, N583S, E694K, A743P; SEQ ID NO 2 (protein, Mutant Thermus aquaticus DNA polymerase) MRGMLPLYEPKGRVLLVDGHHLAYRTFHALKGLTTSRGEPVQAVYGFAKSLLKALKEGGDAVIVVFDAKAPSFPHEAYGGYKAGRAPTPEDFPRQLALIKELVDLLGLTRLEVPGYEADDVLASLAKKAEKEGYEVRILTADKDLYQLLSDRIHVLHPEGYLITPAWLWEKYGLRPDQWADYRALTGDESDNLPGVKGIGEKTARKLLEEWGSLEALLKNLDRLKPAIREKILAHMDDLKLSWDRAKVRTDLPLEVDFAKRREPDRERLRAFLERLEFGSLLHEFGLLESPKALEEAPWPPPEGAFVGFVLSRKEPMWADLLALAAARGGRVHRAPEPYKALGDLKEARGLLAKDLSVLALREGLGLPPDDDPMLLAYLLDPSNTTPEGVARRYGGEWTEEAGERAALSERLFANLWGRLEGEERLLWLYREVERPLSAVLAHMEATGVRLDVAYLRALSLEVAEEIARLEAEVFRLAGHPFNLNSRDQLERVLFDELGLPAIGKTEKTGKRSTSAAVLGALREAHPIVEKILQYRELTKLKSTYIDPLPDLIHPRTGRLHTRFNQTATATGRLSSSDPNLQSIPVRTPLGQRIRRAFIAEEGWLLVALDYSQIELRVLAHLSGDENLIRVFQEGRDIHTETASWMFGVPREAVDPLMRRAAKTINFGVLYGMSAHRLSQELAIPYEEAQAFIKRYFQSFPKVRAWIEKTLEEGRRRGYVETLFGRRRYVPDLEARVKSVREPAERMAFNMPVQGTAADLMKLAMVKLFPRLEEMGARMLLQVHDELVLEAPKERAEAVARLAKEVMEGVYPLAVPLEVEVGIGEDWLSAKE | 8.5 | 32.9 | 5.7 | 3.8 × 10^−6 | 50.0 | 259 | 7.0 | 1.5 × 10^−6 | 11.1 | 36.6 | 75 and 75.3 | 4.5 × 10^−6 | 0.012 | 817.0 | 7.5 | 29 | 7.0 | 3.8 × 10^−6 | 70.6 | 107 | Ratio of fext, fext (mutant polymerase)/fext (wtTaq) ([1]; 3′-terminal base pair G · G): 7.6; fext, f (mismatched 3′terminus)/f (matched terminus) ([1]; 3′-terminal base pair G · G): 9.7 × 10^−6; extension of 3′ transversion mismatches in PCR [2]: greatly increased ability to extend; also recorded: generate amplification products; primer extension on undamaged template [3]: efficiently and rapidly extended primers to the end of the template; abasic site bypass in primer extension [4]: able to extend past the lesion and to the end of the template; PCR amplification with all four αS dNTPs [5]: to lesser extent; dissociation constants for matched and mismatched primer-template duplex [7]: indistinguishable

From patent US9096835B2, “DNA polymerase” (Medical Research Council, priority 2003, dated 2015)
